Laboratory results: a protein production outcome set (Wang et al. 2014)

Assay: label from the status in PepcDB records

Row | Sequence | protein production
1 | MMKKHMYRLGLFKALTLALLVLLSAFVPSVLANQSRKPANLDGTTTLQSILSSSHRSEENRQRDKYRHPTQTLSFFGLRPDMTVVELWPGSGWYTEILAPYLAAKGQLIVTNFAPNDSKIPTVVFQQKLATAFQQKLEANKEVFGKIRVALINPPQELTLAPDNSVDMVVTFRNIHNWVNAGYAEQVYAAAYKALKPGGILGVEEHRAKPGISLQESIKTGYMSEDGVIAAVEKVGFKLVGKSEINANPQDTKDYPGGVWALPPTLRQGQKDRQRLVAIGESDRMTLKFIKPEANINSGSNAK | failed
2 | MIEAIAIAIAVLGAVLLLILFARIRAVDAELKLKKHRAKDAGLADLLNYAAVVDDGVIVGKNGSFMAAWLYKGDDNASSTEEQREMVSFRINQALAGLGNGWMVHVDAVRRPAPNYSERGVSSFPDSVSFAIDEERRRLFEGLGAMFEGYFVLTVTWFPPVLAQRKFVELMFDDDAVAPDHTARTTGLIAQFKREITSLESRLSSAVKMTRLRGQKVVSEEGREVTHDDFLSWLQFCVTGLHHPVMLPSNPMYLDAVIGGQELWGGVVPKIGRKFIQVVAIEGFPLESTPGVLSALAELPSEYRWSSRFIFMDQHESLKHLDKFRKKWKQKIRGFFDQVFNTNTGSINQDAAAMVGDAEAAIAEVNSGLVAAGYYTSVVVLMDEDRERLAASALLVEKAVNRLAFAARIETINTLDAYLGSLPGHGVENVRRPLINTMNLADLLPTSSIWTGSATAPCPMYPPLSPALMHCVTVGATPFRLNLHVRDLGHTFMFGPTGAGKSTHLGIIAAQLRRYAGMSIYAFDKGMSMYPLAAGIRAATKGKSGLHFTVAADDDRLAFCPLQFLETKGDRAWAMEWIDTILALNGVNTTPAQRNEIGNAIMSMHASGARTLSEFSVTIQDEAIREAIKQYTVDGSMGHLLDAEEDGLSLSDFTVFEIEELMNLGEKFALPVLLYLFRRIERALKGQPSVIILDEAWLMLGHPAFRAKIREWLKVLRKANCLVLMATQSLSDAANSGILDVIVESTATKIFLPNVYARDEDTSALYRRMGLNARQIEILATAIPKRQYYYVSENGRRLYDLALGPMALAFVGASDKESVATIKSLEAKFGHEWVHEWLAGRGLNLNDYLEAA | failed
3 | MAYLAPISSSLSIFKNPQLSRFQFSSSSPNPLFLRPRIQILSMTMNKSPSLVVVAATTAAEKQKKRYPGESKGFVEEMRFVAMRLHTKDQAKEGEKETKSIEERPVAKWEPTVEGYLRFLVDSKLVYDTLELIIQDSNFPTYAEFKNTGLERAEKLSTDLEWFKEQGYEIPEPTAPGKTYSQYLKELAEKDPQAFICHFYNIYFAHSAGGRMIGRKVAERILDNKELEFYKWDGELSQLLQNVREKLNKVAEEWTREEKNHCLEETEKSFKYSGEILRLILS | failed
4 | MNLLRHAVAGLCLVASAGCSGQDVMVRKQSEMETRLEHLHQASTTSGVRLAELSAEVTALRERLAAQGAELEQIKAGQRELQANITERLAQVAPAAGTPSRIEVVSRDGAPREKDGPPDAYLKAFGLYSANNFAGAVEAFQAFLAEHPDSEYAGNALYWIGECHYSRSDLPRALDAFRLVAERYPASTKVPDALLKSGYTLYAMKEPERAREILESLAAKYPRSPAAAKARERLAVATPKKQ | failed
5 | MTLWQLIKAEIRSVLTNPVVTLTVFGGVVFYSFLYPLPYAQQTPREQPIAVVNLDGSQTSLKLERMVDATPQVKIVSRLHTVEDAKQAFLNREITGFLVIPEHFYKDVMLGKSPTLAYAADASYFLVYGTVVEGLAQAGGTLGAQVKVSKMVIEGVPLSLASHNYSAIKLNMKPTFNPTMGYIEYVVPAVFVLILQQTLIMAVGLQTGSQRHGRGYWSQVSTGSLLLVRTLVFIAIYYLLSAYYFGFSFERLSVNHIAKAGELLTMLFPFLLGCCGLGFWLGYLLPRRELVTLVVLVSSMPLIFLAGFIWPVESIPAPLLWIADLSPSTWSIKGFLALNQMGATWQQVAKHWTALWLLVALWGGVAYWIAKRNNKPVVTESLS | failed
6 | GVTYLLAKRKILYFEAVESKIFVYTEKDVYETTWKLYELEEKFKDSSFFRCSKSMILNIEWIEKIAPGFHGKFEASLFNREKVIISRQYAKILKQKLNLGGKGK | failed
7 | MAGKRKKPKDTDLPPRVYRGKSKYEFHPARGGSISLCPLDAPISQVWSDYEKVNDRLPEKVTLNKLTEQFLHSMDFCELAIETQKDYRKYSLKLLPVFGEMSPDNIRPEHIRKYMDKRGITSRTQANREKTFLSRVYRWGYERGMVKGNPCRGVKQFTEKARDRYITDEEYDAVYQVAPDVVRVAMEIAYLCLARQADVLALRRDQLREPGIYIKQGKTAARQIKAWSERLRDAITLAESLPLKSGISSVYIIHQRTGLRYTRDGFNSKWRKAREVAKKTYPELDFNFTFHDLKAKGVSDLEGTLSEKQAISGHKNMGQTARYDRKIKIVPVVGNQKK | failed
8 | MFRIIQPHRWKLAVLMIAANLGLLAFLAFGTIKHVSEWQWLDIVGEGGSALLSLVWLFLVFKSRPAGRVTNYLSVGLSCVFFSWWIDALDEFIRLPAEIEWDHWLESGPMPVGLILLTLGIYHWHREQLAISAQMEKRERGFREHRLYDKLTPLGSADYLKRQLIVSLEQSLCQQQPLSLLALDLDGFSTINNAFGHAEGDEVLSAISHLLVLNLRRQDLLCRLAGDRFVVLMPNTGESQAKLLALELQQAVASLAHKTRQQGERLHLSASVAVVMALNETPDNLLRRLNLSLARARRPLTRTA | failed
9 | MKRSASLKEDVFLKSKVHFWTLEVLMVVAIIFICTKISFLFQPIGIFISTLFFPILIALFLYFIFNPVLVFLEEKKVPRNLAILLLYLFIITLTAVGVGVVVPTISQQLMDLVKNMPGYIKEGKLYIQDLSHHRLFEWLSTQNYVSIETIEKNAIEYLKDIPNTITSSATALFGIITNVALVIFTVPFILFYMFKDGHAFPGKAVSLLPESYREEGLRIIKETNETLSAYIQGQALVCIFVGAFTFIGYLIIDLPYAFVLGIIAAFTNIIPNLGPFIGAAPAVIVGLFVSPMQALYVIIIVTIVQQFESNIISPRIMSSKLNIHPLTIIILILGVGNFAGIIGMILAVPVYAVTKTVVSNLVRLFKTKRSNRK | failed
10 | MASYSLVESNSFGSENWCLKLQPSYKHGLLTGLSNGEIRLLDWSTGKSVQKIKASETAINDMKVIGSDFSAGHLVSSASIDAVKVFDIRTNDRIAQIQNEANSPFISLDSRHGLLACGTELQGIDAAVYIYDIRKWDTPLRSLIDSHHDDVTCIKFHPSDVNILLSGSTDGYTNIYDLKQDEEEDALHQVINYASIHSCGWLSPKRIFTLSHMETFAIHELNDKSDELKEPQPLDFGDVREIWNCDYVVDIYPGLIATGKTQENCGELCLLPFKDEKVDTENGIVIPHAHGDEVVRDIFIPAQHSNMLYSCGEDGCVKIWENKQGPLDIPENFWDYSKKMNVLGDDDREGSINLDEPLIIQKESVSTRPRKEKHKKAKKHSMKSRFKPY | failed
11 | QLLEPIRDFEARKCPVHGKTMELFCQTDQTCICYLCMFQEHKNHSTVTVEEAKAEKETE | not failed
12 | MEEVEEFKYEPKSVKEIFIEMKDTVELMVDLAYASLLFGDKEIAEEVLELEERIDLLNYQLMMHSVLAARNVKEAEQVITILQIANAIEDISNAAGDLAKMVLEGVELHPVIKETILEGEEIIGKIQVYPESVIVGKTLGELDLATNTGVWIIAVRRGKRWIFGPNENFKIRAGDVLIGRGTRTSIDHLKEIARGAIRVIGNERA | not failed
13 | ALRTELGLNVSGGGKTNQYYFSAGYLNDKGIALESGYERFNLRSNVTSQMTKWLRGGVNMSFAHSLQNYPVSSDTKTSNVINAGRLMNGFYPIYQMNEDGTYKLDSEGQRMYDFGSYRPSGSMANWNLPATLPNDKSERMKDEFSGRTFLEVTFIEGLKFKTSFNFDLINYNSLDYTNPKIGPAVNTGGSSSRENDRTFSWTWNNILTYDKTLGEHHFNLLAGQEAYSYRYDVLRASRSNMALPDFPELAVGSLVTGGTGYRVDYSLVGYFLNAQYDYQSKYFFSGSYRRDGSSRFAPETRWGNFWSVGASWRIDREDFMVAASDWLSALTLKVSYGAQGNDNLGTYYASSGLYSVVSNNGENALVSDRLATPKLKWETNLNFNAGIDFSLFNNRFSGSFDFFQRRSKDLLYSRPLAPSLGYNSVDENVGELKNTGVEIDLKGTLIHTRDFMWRLGLNLTHYKNVVTDLPLKDMP | failed
14 | MRDTIPVTILSGSLGAGKTTLLNHLLTEAGDRDIAVLVNDMGTVNVDAELIAEGSELDVDDGVAELSNGCICCELQDDLETAVVRLADDRDFDALVVESSGISEPAPVARLFTTESRVAALYRVDTLVTVLDTRLFLDSFAGETPERRGSGEASADGDGDDTEADGADRPLSDLMVEQVELSNLVVLNKTDLCTDEEMDEAEELVRALQPDAETIRTTFSQVDPDRLFDRALFDQTEISDLPGWKRALAESGHGHGEGSHDHGGDSHETDAHEGDTGHGHDDHHHPEEVYGVTSFTYRRRRPFHPDRLAEVLQDLPSGVVRSKGTVWLAGSERRVVIGQAGPSIRAEAQGPWIASLPEVEQDMYRSNRPELDWHDEHGDRRTELVFIGTDYDESALRTALDDALVTDEEWTESESLTGPFPAEQGEEAVIRSP | not failed
15 | MNAEDFPTPDADVESVTPETLKSRIDDGESVTILDARMSGDYEEWHIDGENVESINVPYFHFLEDELDADIIADVPDDREVTVLCAKGGASEYVAGTLADRGYDVHHLEDGMNGWARIYETVEVTDYDGAGTLLQYQRPSSGCLGYLVYDDGEAAIIDPLRAFADRYFDDADELGVDLKYALDTHIHADHISGVRGLDAAGVEGVIPAAAVDRGVTYAAEQSSASPVSQARQDADDLTTAEDGDTFEVGDVTIETVATPGHTTGMTSYLVDDSLLATGDGLFIESVARPDLEEGDEGAPDAARMLYESLQERVLTLPDDTLIGGAHFSDAAEPANDGTYTAPIGQLVEEMDALTMDEDDFVETILADMPPRPANYEDIIATNLGQNTVDDEEAFTLELGPNNCAASQESLAGD | failed
16 | TTSDNTALFYRHWPTLLPGAKKVIVLFHRGHEHSGRLQHIVDELAMPDTAFYAWDARGHGQTSGPRGYSPSLARSVQDVDEFVRFAASDSQVGLEEVVVIAQSVGAVMVATWVHDYAPAIRGLVLASPAFKVKLYVPLARPGLALWHRLRGLFFINSYVKGRYLTHDRQRVASFNNDPLITRAIAVNILLDLYKTSERIVSDAAAITLPTQLLISGDDYVVHRQPQIDFYQRLRSPLKELHLLPGFYHDTLGEENRAQAFEKMQSFISRLYA | failed
17 | SGEKSENCGVPEDLLNGLKVTDTQEAECAGPPVPDPKNQHSQSKLLRDDEAHLQEDQGEEECFHDCSASFEEEPGADKVENKSNEDVNSSELDEEYLIELKKNMSDEEKQKRREESTRLKEEGNEQFKKGDYIEAESSYSRALEMCPSCFQKERSILFSNRAAARMKQDKKEMAINDCSKAIQLNPSYIRAILRRAELYEKTDKLDEALEDYKSILEKDPSIHQAREACMRLPKQIEERNERLKEEMLGKLKDLGNLVLRPFGLSTENFQIKQDSSTGSYSINFVQNPNNNR | not failed
18 | MKRGRRASPAAGQHFKVLACEPCVSRRGIYTTLSLQLQKRALQGLQGGAGRRDLSLDRKGFHGLFLRCPFAALRCCQLRLLLGELLLSIFNLLLYFLDRIIEGRLARTANAATTTCCTSLAAFGGSLIRAFLCLSGGRRSSSRLGCFGVGRLDRDRQRAGVAVQCRSIDGSHDGLLGF | failed
19 | MVAVWSAVAALLGVLINNSLSLVIKDYTVQEWRLGIAGYNGAIVGMYWGDSIFSIMGLCLFLVTLLICLLIEFRLRALLIPKQLPILSLPAMVSILVMVFTISLFSFDTNHLLFTGAAEPVLQTYSREVAIILVVSAMAYQYPLATLQTLGISLTGGLVAQWLTGLNLYALVDLWAINLVLAYFSIKTLFLKHARLASLAATFNALLAWIIWYFWFITGLEQLSAPLLIPFIMSSLITLSLYRQYINHNLLQSELWRTFKLMLINRLRAKQCVAITGSGIRKGTLPDYPSGQWLDPKVPITSYTLAEFKASKRCRYLYWKASYDYYQQALTINKNNIDEQLDYLLNHYLSGLFTETVDSLFNTEQHPVYECYGSIKRLYCLDCAKQQAWPPIPLWSQRDLHCQHCSGLLKPQILAADENIDSECYQALQKNMMECGCLLVIGVPTITPVVSMIIENANANKIPIIFIGTIPFGYFVEEKDVQLTGDIAHWLAEINGFINLLHPLKWGCKWKK | failed
